Data reported in patent publication US20190218553, “VON WILLEBRAND FACTOR (VWF)-TARGETING AGENTS AND METHODS OF USING THE SAME” (DUKE UNIVERSITY, published 2019).

Assays:
[1] = biological target: T1, von Willebrand factor (VWF) (Homo sapiens, UniProt P04275 P04275:764-2813); experiment: filter; Bmax 81%; 2 mM CaCl2, 37 C; settings: tags: factor VIII free, Haematologic Technologies Inc; label: 5'-32P
Procedure: (§1) Affinity constants (Kd values) were determined using double-filter nitrocellulose filter binding assays (Rusconi et al, Thromb. Haemost. $4:841-848 (2000)). All binding studies were performed in binding buffer F (20 mM HEPES, pH 7.4, 150 mM NaCl, 2 mM CaCl₂, and 0.01% BSA) at 37° C. Human purified VWF (factor VIII free) was purchased from Haematologic Technologies Inc. (Essex Junction, Vt.) and used in the double-filter nitrocellulose filter binding assay to determine the Kd of the aptamers. Briefly, RNA were end-labeled at the 5′ end with T4 polynucleotide kinase (New England Biolabs, Beverly, Mass.) and [γ³²P] ATP (Amersham Pharmacia Biotech, Piscataway, N.J.) (Fitzwater and Polisky, Methods Enzymol. 267:275-301 (1996)). End-labeled RNA was diluted in binding buffer F, heat denatured at 65° C. for 5 minutes, and subsequently equilibrated at 37° C. Direct binding was performed by incubating trace ³²P-RNA with varying concentrations of VWF protein in binding buffer F at 37° C. for 5 min. The fraction of the nucleic acid-protein complex which bound to the nitrocellulose membrane was quantified with a phosphorimager (Molecular Dynamics, Sunnyvale, Calif.). Non-specific binding of the radiolabeled nucleic acid was subtracted out of the binding such that only specific binding remained (Wong and Lohman, Proc. Natl. Acad. Sci. USA 90:5428-5432 (1993)).

[2] = biological target: T1, von Willebrand factor (VWF); experiment: filter; Bmax 88%; 2 mM CaCl2, 37 C; settings: Haematologic Technologies Inc, label: 5'-32P
Procedure: as §1

[3] = biological target: T1, von Willebrand factor (VWF); experiment: filter; Bmax 82%; 2 mM CaCl2, 37 C; settings: Haematologic Technologies Inc, label: 5'-32P
Procedure: as §1

[4] = biological target: T1, von Willebrand factor (VWF); experiment: filter; Bmax 78%; 2 mM CaCl2, 37 C; settings: Haematologic Technologies Inc, label: 5'-32P
Procedure: as §1

[5] = biological target: T1, von Willebrand factor (VWF); experiment: filter; Bmax 80%; 2 mM CaCl2, 37 C; settings: Haematologic Technologies Inc, label: 5'-32P
Procedure: as §1

[6] = biological target: T1, von Willebrand factor (VWF); experiment: filter; Bmax 67%; 2 mM CaCl2, 37 C; settings: tags: factor VIII free, Haematologic Technologies Inc; label: 5'-32P
Procedure: as §1

[7] = biological target: T1, von Willebrand factor (VWF); experiment: filter; Bmax 58%; 2 mM CaCl2, 37 C; settings: tags: factor VIII free, Haematologic Technologies Inc; label: 5'-32P
Procedure: as §1

[8] = biological target: T1, von Willebrand factor (VWF); experiment: filter; Bmax 86%; 2 mM CaCl2, 37 C; settings: tags: factor VIII free human purified VWF, Haematologic Technologies Inc; label: 5'-32P
Procedure: as §1

[9] = biological target: T1, von Willebrand factor (VWF); experiment: filter; Bmax 87%; 2 mM CaCl2, 37 C; settings: tags: factor VIII free human purified VWF, Haematologic Technologies Inc; label: 5'-32P
Procedure: as §1

[10] = tags: factor VIII free human purified VWF

ACGAACUGCCCUCGAUCGACGCACAGACGU (ssRNA, rAfCmGmAmAmCfUrGfCfCfCfUmCmGmAmUmCmGrAfCrGfCrAmCmAmGmAmCrGfU-idT) [T59 vrt10]
Kd [1]: 0.4 nM

ACGAACUGCCCUCGAUCGACGCACAGACGU (ssRNA, rAfCrGmAmAmCfUmGfCfCfCfUmCmGmAmUmCmGrAfCrGfCrAmCmAmGmAfCrGfU-idT) [T59 vrt11]
Kd ([2]; tags: factor VIII free): 1.3 nM

ACGAACUGCCCUCGAUCGACGCACAGACGU (ssRNA, mAmCmGmAmAmCfUrGfCfCfCmUmCmGmAmUmCmGmAfCrGfCrAmCmAmGmAmCmGfU-idT) [T59 vrt14]
Kd [1]: 1.7 nM

ACGAACUGCCCUCGAUCGACGCACAGACGU (ssRNA, mAmCmGmAmAmCmUmGfCfCfCmUmCmGmAmUmCmGmAfCrGfCmAmCmAmGmAmCmGfU-idT) [T59 vrt19]
Kd ([3]; tags: factor VIII free): 5.5 nM

ACGAACUGCCCUCGAUCGACGCACAGACGUUUUUU (ssRNA, rAfCrGmAmAmCfUrGfCfCfCfUmCmGmAmUmCmGrAfCrGfCrAmCmAmGmAfCrGfUmUmUmUmUmU-idT) [T79 vrt1]
Kd ([4]; tags: factor VIII free): 1.9 nM

ACGAACUGCCCUCGAUCGACGCACAGACGUUUUUU (ssRNA, mAmCmGmAmAmCmUmGfCfCfCmUmCmGmAmUmCmGmAfCrGfCmAmCmAmGmAmCmGfUmUmUmUmUmU-idT) [T79 vrt2]
Kd [1]: 24 nM

ACGAACUGCCCUCGAUCGACGCACAGACGU (ssRNA, mAmCmGmAmAmCmUmGfCfCfCmUmCmGmAmUmCmGmAfCrGfCmAmCmAmGmAmCmGfUidT) [DTRI-006]
Kd ([5]; tags: factor VIII free): 7 nM

ACGAACUGCCCUCGAUCGACGCACAGACGU (ssRNA, mAmCmGmAmAmCmUmGfCfCfCmUmCmGmAmUmCmGmAfCrGfCmAmCmAmGmAmCmGmUidT) [DTRI-008]
Kd [6]: 7 nM

CCGAACUGCCCUCGAUCGACGCACAGACGG (ssRNA, mCmCmGmAmAmCmUmGfCfCfCmUmCmGmAmUmCmGmAfCrGfCmAmCmAmGmAmCmGmGidT) [DTRI-013]
Kd [7]: 5.4 nM

B1: T86 vrt1 (ssRNA)
RNA: ACGAACUGCCCUCGUUUCAUCGACGCACAGACGU
modifications: 2'-F C2,U7,C9,C10,C11,U12,C24,C26,C32,U34; ribo A1,G3,G8,A23,G25,A27,G33; rest 2'-OMe; 3' idT
Kd [5, 10]: 0.9 nM

ACGAACUGCCCUCGUUUCAUCGACGCACAGACGU (ssRNA, 2'-F C9,C10,C11,C24,C26; ribo G25; rest 2'-OMe; 3' idT) [T86 vrt4]
Kd [2, 10]: 12 nM

ACGAACUGCCCUCGUUUCAUCGACGCACAGACGU (ssRNA, 2'-F C9,C10,C11,C24,G25,C26; rest 2'-OMe; 3' idT) [T86 vrt7]
Kd [2, 10]: 50 nM

ACGAACUGCCCUCGUAUUAUUUCGACGCACAGACGU (ssRNA, 2'-F C9,C10,C11,C26,C28,U36; ribo G27; rest 2'-OMe; 3' idT) [T89 vrt2]
Kd [5, 10]: 12 nM

ACGAACUGCCCUCGUAUUAUUUCGACGCACAGACGU (ssRNA, 2'-F G8,C9,C10,C11,A25,C26,G27,C28,A29; rest 2'-OMe; 3' idT) [T89 vrt10]
Kd [8]: 548 nM

ACGAACUGCCCUCGAUCGACGCACAGACGU (ssRNA, 2'-F U7,C9,C10,C11,U12,C20,C22,U30; ribo G8,A19; rest 2'-OMe; 3' idT) [T59 vrt25]
Kd [8]: 76 nM

B2: T90 vrt1 (ssRNA)
RNA: ACGAACUGCCCUCUAUUAUUUGACGCACAGACGU
modifications: 2'-F C2,U7,C9,C10,C11,U12,C24,C26,C32,U34; ribo A1,G3,G8,A23,G25,A27,G33; rest 2'-OMe; 3' idT
Kd [9]: 0.9 nM

ACGAACUGCCCUCUAUUAUUUGACGCACAGACGU (ssRNA, 2'-F C9,C10,C11,C24,G25,C26,U34; rest 2'-OMe; 3' idT) [T90 vrt6]
Kd [5, 10]: 46 nM

ACGAACUGCCCUCUAUUAUUUGACGCACAGACGU (ssRNA, 2'-F C9,C10,C11,C24,G25,C26; rest 2'-OMe; 3' idT) [T90 vrt7]
Kd [5, 10]: 42 nM

ACGAACUGCCCUCUAUUUCAUUUGACGCACAGACGU (ssRNA, 2'-F C9,C10,C11,C26,C28; ribo G27; rest 2'-OMe; 3' idT) [T93 vrt4]
Kd [3, 10]: 5.7 nM

ACGAACUGCCCUCUAUUUCAUUUGACGCACAGACGU (ssRNA, 2'-F C9,C10,C11,C26,G27,C28,U36; rest 2'-OMe; 3' idT) [T93 vrt6]
Kd [3, 10]: 33 nM

ACGAACUGCCCUCUUUUUUGACGCACAGACGU (ssRNA, 2'-F C9,C10,C11,C22,G23,C24,U32; rest 2'-OMe; 3' idT) [T94 vrt6]
Kd [4, 10]: 42 nM

ACGAACUGCCCUCGAUCGACGCACAGACGUACCCG (ssRNA, 2'-F C9,C10,C11,C20,C22; ribo G21; rest 2'-OMe; 3' idT) [T82 vrt4]
Kd [9]: 38.5 nM

ACGAACUGCCCUCGAUCGACGCACAGACGUACCCG (ssRNA, 2'-F C9,C10,C11,C20,G21,C22; rest 2'-OMe; 3' idT) [T82 vrt7]
Kd [4, 10]: 268 nM
